Results as given in patent publication US20260184773A1, “THERAPEUTIC SINGLE DOMAIN ANTIBODY” (priority 2021, published 2026).

Columns and labels:
[1] = tested on: PANC-1 tumors; settings: PANC-1 xenograft, intraperitoneal for 14 days
[2] = tested on: tSTAT3, pSTAT3 and PD-L1 in MDA-MB-231 cells; assay: Immunoblot (slot blot) of tSTAT3, pSTAT3 and PD-L1; assay type: cell-based, human; settings: MDA-MB-231, 3, 6 and 24 hours, β-actin normalized, 50-100 ug/ml
[3] = tested on: MDA-MB-231 cells; assay: Cell penetration by immunofluorescence/confocal microscopy; assay type: cell-based, human
[4] = biological target: HIV-1 RT (Human immunodeficiency virus type 1 group M subtype B, UniProt P04585); settings: read-out: Binding affinity (KD)
[5] = tested on: ENBOV (Ebola) in HFF; assay type: cell-based, Ebola virus
[6] = tested on: Zika in Vero; assay type: cell-based, Zika virus
[7] = tested on: ENBOV (Ebola) in HeLa; assay type: cell-based, Ebola virus

Nc1ccn([C@@H]2O[C@H](CO)[C@@H](O)C2(F)F)c(=O)n1 [Gemcitabine, gemcitabine, reference compound]
% Inhibition of Control, Day 12 ([1]; Day 12): 19.51% | % Inhibition of Control, Day 15 ([1]; Day 15): 23.17% | % Inhibition of Control, Day 19 ([1]; Day 19): 23.26% | % Inhibition of Control, Day 22 ([1]; Day 22 (end of the study)): 14.93%

Cc1ccc(S(=O)(=O)OCC(=O)Nc2ccc(C(=O)O)c(O)c2)cc1 [S3I-201, reference compound]
Levels of tSTAT3, pSTAT3 and PD-L1 [2]: decreased

B1: SBT-107: anti-HIV-1 Reverse Transcriptase (RT) VHH, SEQ ID NO. 4 (protein)
VHH: MGDVQLVESGGDSVRAGGSLQLSCKASGYTYNSRVDIRSMGWFRQYPGKEREGVATINIRNSVTYYADSVKGRFTISQDNAKNTVYLQMNALKPEDTAMYYCALSDRFAAQVPARYGIRPSDYNYWGEGTLVTVSSSSGLE
modifications: Camelid
Intracellular staining/localization of VHH [3]: no intracellular staining | Kd [4]: 3.85 nM

B2: SBT-106 (protein)
VHH: EVQLVESGGGSVQAGGSLRLSCAASVYSYNTNCMGWFRQAPGKEREGVAVIYAAGGLTYYADSVKGRFTISQENGKNTVYLTMNRLKPEDTAMYYCAAKRWCSSWNRGEEYNYWGQGTQVTVSS
Comment [5]: Does not inhibit Ebola virus | EC50 [μM] [5]: No | EC50 [μM] [6]: No | EC50 [7]: 3490 nM
